# Laboratory results taken from patent publication US20070203071A1 (published 2007).
# Non-standard residues stand in square brackets, D forms with d. No end group written: not given here. Bpa = N[C@@H](Cc1ccc(C(=O)c2ccccc2)cc1)C(=O)O; hArg = N=C(N)NCCCC[C@H](N)C(=O)O; Ac5c = NC1(C(=O)O)CCCC1; Deg = CCC(N)(CC)C(=O)O; desNH2 = X is (desNH2); Aib = CC(C)(N)C(=O)O
# Target: -
# Test: competition binding, 125I-PTH(1-15) tracer, HKRK-B28 cells
row,IC50 [nM],Binder
1,1800,desNH2-[Ac5c]V[Aib]EIQLMHQ[hArg]AKW-NH2 [desNH2-AC5C1]
2,30,[Ac5c]V[Aib]EIQLMHQ[hArg]AKW-NH2 (N-terminus assumed; SMILES CC[C@H](C)[C@H](NC(=O)[C@H](CCC(=O)O)NC(=O)C(C)(C)NC(=O)[C@@H](NC(=O)C1(N)CCCC1)C(C)C)C(=O)N[C@@H](CCC(N)=O)C(=O)N[C@@H](CC(C)C)C(=O)N[C@@H](CCSC)C(=O)N[C@@H](Cc1c[nH]cn1)C(=O)N[C@@H](CCC(N)=O)C(=O)N[C@@H](CCCCNC(=N)N)C(=O)N[C@@H](C)C(=O)N[C@@H](CCCCN)C(=O)N[C@@H](Cc1c[nH]c2ccccc12)C(N)=O) [parent]
3,230,"[Deg]V[Deg]EIQLMHQ[hArg]AKW-NH2 (N-terminus assumed; SMILES CC[C@H](C)[C@H](NC(=O)[C@H](CCC(=O)O)NC(=O)C(CC)(CC)NC(=O)[C@@H](NC(=O)C(N)(CC)CC)C(C)C)C(=O)N[C@@H](CCC(N)=O)C(=O)N[C@@H](CC(C)C)C(=O)N[C@@H](CCSC)C(=O)N[C@@H](Cc1c[nH]cn1)C(=O)N[C@@H](CCC(N)=O)C(=O)N[C@@H](CCCCNC(=N)N)C(=O)N[C@@H](C)C(=O)N[C@@H](CCCCN)C(=O)N[C@@H](Cc1c[nH]c2ccccc12)C(N)=O) [Deg1,3]"
4,840,"[Deg][Bpa][Deg]EIQLMHQ[hArg]AKW-NH2 (N-terminus assumed; SMILES CC[C@H](C)[C@H](NC(=O)[C@H](CCC(=O)O)NC(=O)C(CC)(CC)NC(=O)[C@H](Cc1ccc(C(=O)c2ccccc2)cc1)NC(=O)C(N)(CC)CC)C(=O)N[C@@H](CCC(N)=O)C(=O)N[C@@H](CC(C)C)C(=O)N[C@@H](CCSC)C(=O)N[C@@H](Cc1c[nH]cn1)C(=O)N[C@@H](CCC(N)=O)C(=O)N[C@@H](CCCCNC(=N)N)C(=O)N[C@@H](C)C(=O)N[C@@H](CCCCN)C(=O)N[C@@H](Cc1c[nH]c2ccccc12)C(N)=O) [Deg1,3,Bpa2]"
